Experimental data reported in the domain aggregation screens of Martell et al. (2025).

Experiment: soluble fraction after stress (log2 fold change); higher = more stays soluble; pooled small domains, quantitative proteomics
Conditions: stress: 50 degC
Method in brief: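 Each library was heated to 50°C as a stress step. The libraries, made up of small protein domains, were pooled and analysed at high throughput by quantitative proteomics. The reported value is the base-two logarithm of the fold change in each protein's soluble amount after stress, taken as a measure of aggregation propensity. The higher the value, the more protein stays in solution.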

Sequence | soluble fraction (log2)
HMKTMAVYPVGTRVLTSDGEIGVVEKQNSEAPERPVIKILKGADGHDYEKPDFKDLMKILTLFIVDTI | 0.298
HMRPQIAIDAIQALSLIMRTENKEDPTYLESRRVVSDAVAKRLSLNPTDLNRAWSRAPRDHQIAVLSALTQ | -0.853
HMRSLVDRSVQAVTDHIRENALRVGDSLPGEAYFATSLGVSRAVMREAFGALAALRVIDVGNGRKPRVGAI | -0.58
HMPPITIVPNDNGVPIIRSQTPEISTAVNVELKAAGINTHTIDGTSIRVPKAQAQVAQQIVSRVNTRFT | 0.158
HMDEMEFQKYVDQNLKQKGISLTAEAKAELLLRLGGDTMLLHSAIEKLDLYGEKNLNLNDIKHLVSLNSDV | 0.229
HMKSATGKIPDFISDLPVDEFVRELIVTNAFQPLNKFKEVQNHIGSALKIYVDELTEKRANGTVHILYSHK | 0.077
HMYFDDEELDTYKGRASNAYSPDETAQFEEVMTTMRPDEVAAWLRSLQLRGINLPDELKDEAIMLVE | -0.0866
HMTKGFSIQDISLSKSTMTFLQQNKITDLASLLSMSKSQIEGMKGFKPKMIQEIEKNLDKVGLVLAQD | 0.176
HMGISNEETFLLEKMSSGRRYSRKELDNLMGFEKTKTIRLLGSLINKGLVVAEGVNRARRYIR | -1.12
HMPLLSEWDAALEELWAKLGDVPMDPETERMDAPFLGFPAGTPREDIWHWFDERHSKGVAHLLYG | -2.37
HMEKKSKLVLAVLQGSDSDNTIRNLNERGFMVTVLSSTGGFLKKKSTTVMIGVEEDRLEEALDVLQKYAG | -0.295
HMAHSDEAWSVARRVARELDKILDGAGPRRTALVRAAAELRLSTRQIYNLLARYRADRTVTSLLPRR | -0.316
HMGKTKFTEMSALELKAYAELNNNSMHWVYRMLYIGGGDVGFRKGMKELGYSGKFIWMTLERLKKS | -1.32
HMARLQEVVVRVPVEDGQTLAAIYREAEVIERADEGTGVLLTVRIPAPLLGRLRRLEGVHVQP | -0.125
HMKEVDERPWGKYEVLLDAPDVKVKRITVNPGQRLSYQYHEKRAEVWTVVSGILTIILEDDKLFRG | 0.237
HMAQPIPSGSDIREAREAAGMNLRDFARMVGGGAIGTWSHYETGKPIRVKSISPEVWQRVRDFILQHGK | -0.417
HMGTGIKQVNVVSVIGQDEETAKTTLTNLGLKVNVTYATSTSDNGKVTKQSIDAGKTVDEGTSVTITVNKV | 0.241
HMKIAPRTAENQQLRKMILEIYTTSKKRVGPAKVRRMLLRDYGISISIGRVYRLMSTMNLPKMS | -0.258
HMEALGLSPRQVDVLRLLVEGRSNKMIMRELELSESTVKTHLQAIFRRLGVSSRTQAVVAAARLGL | -1.25
HMLAAGTSLTVDTESSNLNIRQEPSTEGVILGKAAKGEVVTLVEQSSDEWWKIKTKDGEEGYAYARYLR | 0.203
HMLETILQIGKDGVGENLVKQVNDALEARELIKGRVLDNNLELDARTAAQILAKATRSEVVQVIGTKFV | -0.0922
HMLGERIRTLRKEIGMSVTELARRVKTSPSHISEIERGEKMPSLNLLVKIAKELKTSIDYLTGLVG | -0.0679
HMDAHYMEMKGKTGTAFTMLRPAGKIDIEGQIFDAVAEAGFIEKGEAIRVVKYENAQLIVRK | 0.11
HMNNDFIVKSTDSHKVNLRSQPDTHADIIKRLDDHTIVEKLKTVRKNWYLVQLKDTTTQGYVHKSQLERV | -0.0413
HMYFGNSLFQARKRSGLSQEGVAEKLGVSRQTVSKWETGETVPDIYQSKKMARLYGVSLDEL | 0.0951
HMAPGIGDSKYFSHIYEMKHIDTIIDNDKGDRLIEHFEIQDTPFIFTKHWTSAFGFSKRQQEIITDYLSYF | 0.0839

Sequence | soluble fraction (log2)
HMKHMTMYEAAKIAKEVGAPKLWLTHYSPSMTRPEEFMDDVRKIFPAAYAAKDGWTMELNFDEG | -0.493
HMDALPLIQLEKEIKDFISQGQKINAIKHYRNVMDRDFGTTISLKLAKYTVDALAQNIKVDLTKGYDQ | -0.475
HMTFPYTSLKDAPKNMKEIDGVPLTLDQVNQIAKVADSIGVSKEKNGYAIAKSQFKKSHHIENNRWVKNK | 0.0239
HMFFAGLSPEAARTLDSLPLHSWSSVEQIARQAGLNIETVRKELGLLELSGIALSRQGRFRRA | -0.549
HMQWQPSEEAMQRLEQHGIPRAFSFSQLDAFVLQGQEQGSNRNDWNTRFFRFIKNQWVYAQN | -1.62
HMNTIFSVNGPVVKVKDTKDFSMMEMVYVGEKKLIGEVIGITESFTTIQVYEVTTGLKVGEPVYTTGAPM | -0.38
HMNEIDLEAAKRIALQNAGVESADAAFTKAQLDYDDGVAEYEIEFVAGSTKYEYEISAANGTVLKSSKESV | -0.0497
HMDGPGAGGRFLAEDLGTGKMTLEALQRHYVTLVYSRTGKYEETARRLEIDRRTVKKYLDEELLAELRET | 0.084
HMGEVPPGWSVEALAAIERDLAHHVGPVARVLVQRGARLHTTTDDLRSALANAITDDLARRRFMQP | -0.416
HMDIVLPFSFAKRHGVVLSERQGETELLYLKGLPVRVLAEARRVLRQEFTVRQVEQAVFDKALSESYQN | -1.04
HMHQAADFAGFITFNKDGVEQFSFGKYKNQTVVSVLEKDPGYYSWIQNADFPLYTKKILTAIRLAM | -0.577
HMAPAGGITRQDLFAWGLMGGEGSREKRQQLKKSLGLPSHLGTSGFLDALNLIATRDQVEALLHK | -0.15
HMEVKEVDYSAFMTMTEENSISKVEIEENQILFKKKGDDQTTYKTARMDDPALITRLHDQGVDFTGQ | 0.0677
HMELRIREILESKDIKVSSLAETVGITRANMSNIVNGKSTPSLETLEKIANALGVDITELFA | 0.116
HMKRNLESVLDHIEGIGPKRRKALYKHFGNLDAMRVAELEELESVEGMNKKAALAVYEFFRRNS | 0.254
HMFELTVGTPIRVIREPYFGKLGTVTELPAQLMVVESGTEVRVLKAKIEGEGEVLVPRANVEIIATG | -0.0828
HMLGSVRTIRQVLDDGRLIVADGGGNPSVIRRSGALAHETFANGQRVIVDPSGRLALELLPD | 0.314
HMEEKEIGQTLSVKIRENVLSKLDMTRDLEDEEVKHIIEHEIWLAAKKHYISLEERNSIKRGIFNSL | -0.573
HMLGVLEYYNNGQKKSERTFKGGMQIYTEWYENGQMKAEERKWIDQLGSLKFLNLLSTEWDENGNEISRME | -1.34
HMTQDFEPGGQVFSRGEWLTIIRVNKSNGAVSSVTTPNYSFLGYSGTMKVTPDRITDYKAPSAEEAAVAS | -0.281
HMNGKPDMTPIPAGSRNNDLHAWAYGRLLNHPDNAEAIRRDLFERGQTSGLKESELETIWQSIRRQLGGD | 0.249
HMPPGQIVNEALQRAGNSTPTGTAISAQDDIKLYTSALAELATQGDTSSASVAKLREALQTAQVAFYNAV | 0.0769
HMKNQQLFNIGDRFQVDGVAYRMEKLFPENGTVEVYNLGVGRHKTMSFEEILALWNSGKLLFEI | -0.185
HMGGGFLVPSLVGKSLEEARSLSELRGFKLEVGDYVISSEYPAGRVTRQNPANGAKGQEGDVIKVEVSS | 0.0353
HMSPLALLTPRELDILRAMTAGASNKEIARQFAIAETTVKIHVQHILRKLDVTTRVHAAVMASESGL | -2.66
HMGQLVYPAGVYDVNKSYITDSNSAPYVLDKTDNNYYVLNTQMTWKGTEQDNKTPSQSYEESGGSVWLLFD | -0.235

Sequence | soluble fraction (log2)
HMNETHANKVYNFLKKKKKPLSAYEILKELASEGISAPTTIYRALNKLVSNGLIHKIESLNAWTV | 0.318
HMDPSVTGLLTRLGISPQTAQELAGQYEEPYILEKIAIVEAHPEYVKNAAGFVITALQEDWKD | -0.255
HMLDLSDFEVVRDLYLSEQIWNVGDLIIARSKKDDTYKAWEIIRKGTNYVTGIDESHKVEKIWLHDILI | -1.4
HMLLSEPSVLKFNDDNSYEIVSGFLTEYKDKIVKIERRYKKATVKITVAGEEKEIKVSFVEDTE | -0.161
HMENEIFVPKVFMDWYNKVDKSIKVFKAFNLIEKETDPRLKEWVEDNQDEFAKIWLGQLLPVV | -0.0598
HMNPSRPASKEELLGLFEHLERALDAVTFFRPAEKKPVVVQTLRAMLTKASFTEQDIRTMRGVIAALEN | -1.5
HMPDLKIGKDHRLAEYIETKIAEDGYSPGAVLGEIKAKGLEFETEISKPTLYSYIDKGIFLTITNKELPV | 0.105
HMPFNREYWIEQLLKEVGLMGTPYAELDKHEVELDSPTGRASGFKVNAKTYVDQQLLFIENEYNNQPE | -0.153
HMIPESVQGIEEFLATGALKGIGKKTAAAIVHKFGKDTLRIMEEEPERLAEVSGIGEKKAAAIGEAFALH | 0.171
HMVDPRWETPDENLAEQIKSVMPVMWVYDREAKSFVERPAIDFSFSIFERTTLYIYDKDGNEIGFAR | -0.028
HMPDLSAEERNIVEALQKSNDLQVNLIAVKTGMDMGTLSATLFGLEMKGLVKLMAGGTYHLI | -0.141
HMPSSAYGPYKNVFLSNSELTKLKNELPTSWEHYINRLSEYMRSTGRQYQSHAATILRWAATDRNS | -0.139
HMNQEFRMPNAIKGVELSEENKQQLTQGEKVFLEGMTSAKGSLFDAYVYIDQEKKTLAFDFPEK | 0.184
HMPQNVSVPDVTNMTQAEAESKLKEKNLAVGNIIPELSTTVEKDKVTRTNPESGSNVRKNSKVDIYVSQG | 0.0455
HMNKFKVNERVRVIATGEIGIVKGREILPVEGSKRVNIEYLVKVGNGFSNWKAFSKKELEPVR | -1.18
HMQNYLEVLRLHELGMGQRKIAQQVHTSRDTIRKIIAIAENQGLNYSNLIGKTDNELSKVFG | -0.307
HMSFPFLMPNLEGLQLDQVRVILEENGLEIGQENYQPDSKFGPGTIINHQPSVDTVVQTGQKVNLQISGTD | 0.112
HMVKNVVIPDVSNKAPVDASNQLTDLGFEVVTEYKYIASDTIEEGKVVKTSPEIGSKRKYGQKITLYISSG | -0.56
HMGEPVASSREVAKRFGKEHKHVLAAIRQILVAENSATKFFHETAFEYRGQRFPEYLMNRDGFALLAMGF | -3.1
HMKAEKEIEKIKFTIYNEFKRKQEENHFLPPWDGTKMLRQFVLGVVANNPKYQHVNTDILYRDLLLLYYQ | -0.968
HMTFPAILRELLEKHPQTGKRTTLKELGEAVGTRQQSISLYRNGDTQPSPDILVRIAAFFGVSVDYLL | -0.419
HMAEVGDFTLAELIKVLFNEAGVLKAPVELRNDNTGGLQYRVGAYTDSETGWETIASIADLKGA | -0.436
HMKPSKTVYTTANLNLRNGASMSAAVYTSVSRGTALATTGRTTSGWTQITHRGRTLWASSKYLTTTTPP | -2.68
HMTGLSNFEFNQIKLDLMHELTQTPLRLTDLVNRITSFENEKTITVIRFLVDEGILLLKDDTLSVAKID | -0.542
